For test [1], the system named is human embryonic stem cells. The test is described as follows: RT-PCR of mesoderm-specific marker genes in treated human embryonic stem cells. Type of test: cell-based. The settings on record: PD98059 20˜50 μM, BMP-4 10˜20 ng/ml; 3 days and 5 days; FIG. 2(A). The protocol:
The human embryonic stem cells cultured in Example 1 were cultured for 3 days in a conditioned medium that contained the MEK1/2 inhibitors, PD98059 and BMP-4 at a concentration of 20˜50 μM and 10˜20 ng/ml, respectively. Then, in order to confirm the differentiation of human embryonic stem cells into mesodermal cells, expression of the mesoderm-specific marker genes was examined by RT-PCR. For analysis of gene expression, total RNA was isolated from cells, and cDNA was synthesized using reverse transcriptase, followed by PCR (polymerase-chain reaction) using primers specific to each gene.
As a control group, sample was cultured only in the conditioned medium for 5 days. As experimental groups, cells were cultured for 3 days and 5 days in culture media that were prepared by adding each of PD98059 and BMP-4 to the unconditioned medium at a concentration of 20˜50 μM and 10˜20 ng/ml, respectively. In addition, cells were simultaneously treated with PD98059 and BMP-4, and examined for 3 days and 5 days.

For test [2], the system named is CD34 positive cells (hESC-derived hemangioblasts). The test is described as follows: RT-PCR of vascular smooth muscle cell-specific markers in CD34 positive cells. Type of test: cell-based, human. The settings on record: EGM with PDGF-BB 50 ng/ml, about 5 days; FIG. 5(a). The procedure:
In order to differentiate CD34 positive cells into vascular smooth muscle cells, CD34 positive cells were cultured for about 5 days in EGM (Endothelial cell Growth Medium, clonetics, USA) containing PDGF-BB at a concentration of 50 ng/ml. Expressions of the vascular smooth muscle cell-specific markers were examined by RT-PCR. For analysis of gene expression, total RNA was isolated from cells, and cDNA was synthesized using reverse transcriptase, followed by PCR (polymerase-chain reaction) using primers specific to each gene.

The subject of test [3] is hESC-derived vascular smooth muscle cells. The test is described as follows: Immunofluorescent staining of vascular smooth muscle cell-specific markers. Type of test: cell-based, human. The settings on record: EGM with PDGF-BB; FIG. 5(b). The procedure:
In order to confirm the differentiation into vascular smooth muscle cell at protein level, expressions of the vascular smooth muscle cell-specific markers were examined by immunofluorescent staining. In order to stain the hESC-derived vascular smooth muscle cells with the vascular smooth muscle cell-specific markers, α-smooth muscle actin (α-SMA) and calponin, the sample was first fixed in 4% paraformaldehyde at room temperature for 20 min, and then washed with a PBST solution (0.1% Tween-20 in PBS) for 5 min three times. To allow permeabilization of antibodies into the nucleus, a permeating solution (0.1% Triton X-100 in PBS) was added to culture plates, and left at room temperature for 15 min. After 15 min, the permeating solution was removed, and 4% NGS (Normal Goat Serum) was added for blocking at room temperature for 1 hr. […] Next day, in order to examine expressions of the markers (α-SMA, calponin) under a fluorescence microscope, secondary antibodies against the marker antibodies (Alexa 488-conjugated Goat anti-mouse IgG and Alexa 594-conjugated Goat anti-Rabbit poly) were added, and left at room temperature for 1 hr. After 1 hr, the culture plates were washed with a PBST solution for 10 min five times, and a fluorescence microscope was used to examine their expressions.

Turning to `COc1cccc(-c2cc(=O)c3ccccc3o2)c1N` [PD98059, 2-(2-amino-3-methoxyphenyl)-4H-1-Benzopyran-4-one2-(2′-Amino-3′-methoxy)-flavone2-(2-amino-3-methoxyphenyl)-chromone, reference compound], in test [1], the “Expressions of the mesoderm-specific markers BRACHYURY, GOOSECOID, TBX-4, TBX-5 and TBX-6 (RT-PCR)” value was “not observed”.

B1: PDGF-BB: Platelet-derived growth factor-BB (protein, UniProt P01127 82-190, looked up)
Platelet-derived growth …: SLGSLTIAEPAMIAECKTRTEVFEISRRLIDRTNANFLVWPPCVEVQRCSGCCNNRNVQCRPTQVQLRPVQVRKIEIVRKKPIFKKATVTLEDHLACKCETVAAARPVT
Turning to B1, the “Expression of the vascular smooth muscle cell-specific markers SM22α, SM-MHC, PDGF-B receptor, α-SMA and calponin (RT-PCR)” value in test [2] is reported as “found to express”. Also, the “Expressions of the vascular smooth muscle cell-specific markers α-SMA and calponin at protein level (immunofluorescent staining)” value in test [3] is “observed”.

B2: BMP-4: bone morphogenetic protein, growth factor used to regulate differentiation of embryonic stem cells (protein, UniProt P12644 293-408, looked up)
Bone morphogenetic protein 4: SPKHHSQRARKKNKNCRRHSLYVDFSDVGWNDWIVAPPGYQAFYCHGDCPFPLADHLNSTNHAIVQTLVNSVNSSIPKACCVPTELSAISMLYLDEYDKVVLKNYQEMVVEGCGCR
On to B2, for which the “Expressions of the mesoderm-specific markers BRACHYURY, GOOSECOID, TBX-4, TBX-5 and TBX-6 (RT-PCR)” value in test [1] was “not observed”.

For the origin of these results see patent US8507275B2, “Method of inducing differentiation of embryonic stem cells into hemangioblast” (Korea Advanced Institute of Science and Technology (Kaist), priority 2008, dated 2013).
